Read-outs that look alike come from different tables or passages of the source.
Experiments:
Test in all cases: cell-based or functional assay
TGFβ1 (R&D systems) [1] = target: TGFβ1 (R&D systems) (UniProt P01137)
TGFβ1 (R&D systems) [2] = target: TGFβ1 (R&D systems) (UniProt P01137); remark: listed apart in the source
[3] = target: IL2Rβ and common γ chain on 32Dβ cells
IL2Rαβγ on CTLL2 cells = target: IL2Rαβγ on CTLL2 cells
[4] = target: IL2Rβ and common γ chain on 32Dβ cells; remark: listed apart in the source

Sequence of UniProt P01137 (P01137 279-390 limits assumed): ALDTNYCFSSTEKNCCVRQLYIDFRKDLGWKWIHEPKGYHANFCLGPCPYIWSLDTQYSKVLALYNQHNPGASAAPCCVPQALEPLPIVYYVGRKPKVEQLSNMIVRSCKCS

| Substance | IC50, inhibition of TGFβ1 activity in HEK-Blue TGFβ cells (TGFβ1 (R&D systems) [1]) [nM] | IC50, inhibition of TGFβ1 activity in HEK-Blue TGFβ cells (TGFβ1 (R&D systems) [2]) [nM] | EC50, 32Dβ cell proliferation (WST1) [3] [nM] | EC50, CTLL2 cell proliferation (PrestoBlue) (IL2Rαβγ on CTLL2 cells) [nM] | EC50, CTLL2 cell proliferation (WST1) (IL2Rαβγ on CTLL2 cells) [nM] | EC50 (printed EC:), 32Dβ cell proliferation (WST1) [4] [nM] | EC50, 32Dβ cell proliferation (WST1) [4] [nM] |
| --- | --- | --- | --- | --- | --- | --- | --- |
| Human recombinant TGFβRII/Fc (from UniProt P37173 24-159) (Fc fusion) | 0.559 | 0.461 | – | – | – | – | – |
| human recombinant IL-15 (from UniProt P40933 49-162) (ligand) | – | – | 0.0106 | 0.00495 | 0.00622 | 0.0166 | 0.0166 |

— patent US20240124543A1
